Source: PMC11946911

Tests used:
[1] = target: EcZorA (ZorA of the Escherichia coli NCTC 9026 type I Zorya system, EcZorI) (Escherichia coli NCTC 9026); assay: cryo-EM structure
[2] = target: EcZorB (ZorB of the Escherichia coli NCTC 9026 type I Zorya system, EcZorI) (Escherichia coli NCTC 9026); assay: cryo-EM structure

| Substance | stoichiometry N [1] | stoichiometry N [2] |
| --- | --- | --- |
| EcZorA (ZorA of the Escherichia coli NCTC 9026 type I Zorya system, EcZorI) (natural protein) | 5 |  |
| EcZorB (ZorB of the Escherichia coli NCTC 9026 type I Zorya system, EcZorI) (natural protein) |  | 2 |
